The source of these data is paper doi:10.1101/2021.05.19.444868.

What is called stoichiometry N is a count of units in the complex or per binding partner.

In the experiment the target is trimeric post-fusion hMPV B2 F protein (trypsinized) (human metapneumovirus (hMPV), subgroup B2 | T4 bacteriophage). Description: SEC.

As for “trimeric post-fusion hMPV B2 F protein (trypsinized) (natural protein)”, the stoichiometry N was found to be 3.
